According to patent US20160264649A1:

Key:
Assay in all cases: cell-based or functional assay
[1] = target: HIV-1 MGRM-A-002 Env (HIV-1)
[2] = target: HIV-1 93RW029 Env (HIV-1)
[3] = target: HIV-1 VLGCA1 Env (HIV-1)
[4] = target: HIV-1 MGRM-A-010 Env (HIV-1)
[5] = target: HIV-1 92RW020 Env (HIV-1)
[6] = target: HIV-1 SC422661.8 (Acute) Env on pseudovirus (HIV-1)
[7] = target: HIV-1 MGRM-D-026 Env (HIV-1)
[8] = target: HIV-1 94UG103 Env (HIV-1)
[9] = target: HIV-1 MGRM-F1-023 Env (HIV-1)
[10] = target: HIV-1 MGRM-AE-001 Env (HIV-1)
[11] = target: HIV-1 MGRM-F1-017 Env (HIV-1)
[12] = target: HIV-1 MGRM-Chronic-B-023 Env on pseudovirus (HIV-1)
[13] = target: HIV-1 MGRM-Chronic-B-012 Env on pseudovirus (HIV-1)
[14] = target: HIV-1 MGRM-D-003 Env (HIV-1)
[15] = target: HIV-1 92UG024 Env (HIV-1)
[16] = target: HIV-1 MGRM-D-014 Env (HIV-1)
[17] = target: HIV-1 MGRM-Chronic-B-018 Env on pseudovirus (HIV-1)
[18] = target: HIV-1 MGRM-G-009 Env (HIV-1)
[19] = target: HIV-1 VLGCB3 Env on pseudovirus (HIV-1)
[20] = target: HIV-1 APV-17 Env (HIV-1)
[21] = target: HIV-1 MGRM-AE-008 Env (HIV-1)
[22] = target: HIV-1 MGRM-F1-022 Env (HIV-1)
[23] = target: HIV-1 MGRM-Chronic-B-024 Env on pseudovirus (HIV-1)
[24] = target: HIV-1 MGRM-C-013 Env on pseudovirus (HIV-1)
[25] = target: HIV-1 MGRM-C-009 Env on pseudovirus (HIV-1)
[26] = target: HIV-1 MGRM-G-017 Env (HIV-1)
[27] = target: HIV-1 MGRM-C-007 Env on pseudovirus (HIV-1)
[28] = target: HIV-1 93IN905 Env on pseudovirus (HIV-1)
[29] = target: HIV-1 MGRM-Chronic-B-004 Env on pseudovirus (HIV-1)
[30] = target: HIV-1 MGRM-Chronic-B-017 Env on pseudovirus (HIV-1)
[31] = target: HIV-1 MGRM-D-018 Env (HIV-1)
[32] = target: HIV-1 MGRM-Chronic-B-002 Env on pseudovirus (HIV-1)
[33] = target: HIV-1 APV_13 Env on pseudovirus (HIV-1)
[34] = target: HIV-1 98CN006 Env on pseudovirus (HIV-1)
[35] = target: HIV-1 IAVI-C18 Env (HIV-1)
[36] = target: HIV-1 LAVI_C22 Env on pseudovirus (HIV-1)
[37] = target: HIV-1 MGRM-AE-004 Env (HIV-1)
[38] = target: HIV-1 LAVI_C3 Env on pseudovirus (HIV-1)
[39] = target: HIV-1 MGRM-Chronic-B-008 Env on pseudovirus (HIV-1)
[40] = target: HIV-1 CMU02 Env (HIV-1)
[41] = target: HIV-1 MGRM-C-025 Env on pseudovirus (HIV-1)
[42] = target: HIV-1 MGRM-C-004 Env on pseudovirus (HIV-1)
[43] = target: HIV-1 PVO.4 (Acute) Env on pseudovirus (HIV-1)
[44] = target: HIV-1 MGRM-Chronic-B-011 Env on pseudovirus (HIV-1)
[45] = target: HIV-1 93MW959 Env on pseudovirus (HIV-1)
[46] = target: aMLV envelope
[47] = target: HIV-1 MGRM-D-013 Env (HIV-1)
[48] = target: HIV-1 94UG114 Env (HIV-1)
[49] = target: HIV-1 MGRM-C-010 Env on pseudovirus (HIV-1)
[50] = target: HIV-1 MGRM-AG-006 Env (HIV-1)
[51] = target: HIV-1 MGRM-Chronic-B-003 Env on pseudovirus (HIV-1)

Substance: 2F5 (antibody)
- neutralization IC50 [1]: > 50 µg/mL
- neutralization IC50 [2]: > 50 µg/mL
- neutralization IC50 [3]: 3.9 µg/mL
- neutralization IC50 [4]: 20.8 µg/mL
- neutralization IC50 [5]: 3.36 µg/mL
- IC50 [6]: > 50 µg/mL
- IC50 (µg/ml), pseudovirus neutralization [7]: 4.37 µg/mL
- neutralization IC50 [8]: 3.79 µg/mL
- neutralization IC90 [8]: 46.6 µg/mL
- IC50 (pseudovirus neutralization) [9]: 1.78 µg/mL
- IC50 (µg/ml), pseudovirus neutralization [10]: 0.29 µg/mL
- IC50 (pseudovirus neutralization) [11]: > 50 µg/mL
- IC50 [12]: 0.1 µg/mL
- IC50 [13]: 17.6 µg/mL
- IC50 (µg/ml), pseudovirus neutralization [14]: > 50 µg/mL
- IC50 (µg/ml), pseudovirus neutralization [15]: 0.95 µg/mL
- neutralization IC50 [15]: 1.27 µg/mL
- neutralization IC90 [15]: 34.4 µg/mL
- IC50 (µg/ml), pseudovirus neutralization [16]: 2.22 µg/mL
- IC50 [17]: 10.8 µg/mL
- IC50 (µg/ml), pseudovirus neutralization [18]: 7.21 µg/mL
- IC50 [19]: > 50 µg/mL
- neutralization IC50 [20]: 2 µg/mL
- IC50 (µg/ml), pseudovirus neutralization [21]: > 50 µg/mL
- IC50 (pseudovirus neutralization) [22]: 1.26 µg/mL
- IC50 [23]: > 50 µg/mL
- IC50 [24]: 18.4 µg/mL
- IC50 [25]: > 50 µg/mL
- IC50 (µg/ml), pseudovirus neutralization [26]: 0.6 µg/mL
- IC50 [27]: > 50 µg/mL
- IC50 [28]: > 50 µg/mL
- IC50 [29]: 2.41 µg/mL
- IC50 [30]: > 50 µg/mL
- IC50 (µg/ml), pseudovirus neutralization [31]: 4.05 µg/mL
- IC50 [32]: 1.25 µg/mL
- IC50 [33]: 3.81 µg/mL
- IC50 [34]: > 50 µg/mL
- neutralization IC50 [35]: > 50 µg/mL
- IC50 [36]: > 50 µg/mL
- IC50 (µg/ml), pseudovirus neutralization [37]: 0.98 µg/mL
- IC50 [38]: > 50 µg/mL
- IC50 [39]: > 50 µg/mL
- IC50 (µg/ml), pseudovirus neutralization [40]: 0.6 µg/mL
- neutralization IC50 [40]: 0.38 µg/mL
- neutralization IC90 [40]: 12.2 µg/mL
- IC50 [41]: > 50 µg/mL
- IC50 [42]: > 50 µg/mL
- IC50 [43]: > 50 µg/mL
- IC50 [44]: 0.81 µg/mL
- IC50 [45]: > 50 µg/mL
- neutralization IC50 [46]: > 50 µg/mL
- neutralization IC90 [46]: > 50 µg/mL
- IC50 (µg/ml), pseudovirus neutralization [47]: 2.12 µg/mL
- IC50 (µg/ml), pseudovirus neutralization [48]: > 50 µg/mL
- IC50 [49]: > 50 µg/mL
- IC50 (µg/ml), pseudovirus neutralization [50]: 0.85 µg/mL
- IC50 [51]: 1 µg/mL
